Assay results published in patent publication US12686712B2, “Antibody, related use, pharmaceutical composition including method for diagnosing fungal infections, fungal infection diagnosis kit and method for treating fungal infections” (priority 2020, dated 2026).

Assays:
[1] = test system: C. neoformans; assay: Melanization trial (L-DOPA); assay type: cell-based, Cryptococcus neoformans; conditions: concentrations lower than 6.2 μg/ml; p>0.05
Experimental: C. neoformans cultivation was performed as paragraph and cellular suspension (1×10^6 cells/ml) was cultivated for 72 hours in minimum media supplemented with 1 mM of L-DOPA in 96-well plate of U-shape bottom. Antibodies HC6/DD11 and AF1/CC5 were added to minimum media within 25 to 0.05 μg/ml concentration range. The plate was centrifuged and pigment development quantification was defined densitometrically upon image scanning by iBright FL1000 Invitrogen equipment.
AcM HC6/DD11 e AF1/CC5 established concentrations were 0.2 to 25 μg/ml. L-DOPA was used with substrate to melanization.
Pigmentation in C. neoformans was assessed through brown to black sedimentation observation in 96-well plate bottom. To document pigmentation or inhibition, plates were photographed over white surfaces (clear bottom), to enable differentiation between pigmented and non-pigmented populations. It shall be noted that every AcM dose presents fungal growth, however with negative pigmentation or partial inhibition.

[2] = test system: C. albicans; assay: Indirect ELISA against intact cells using poly-L-Lysine (PL); assay type: binding, Candida albicans; conditions: 10^4 and 10^5 cells/ml
Experimental: (§1) For this test, C. neoformans (H99), Candida albicans, Giardia lamblia, human lung line cell A549 (ATCC), Escherichia coli and Staphylococcus aureus. Cells were washed in PBS three times and suspended at 10^7 cell/ml density in poly-L-Lysine (5 μg/ml in PBS) for adherence at night at 4° C. The next day, plates were blocked with PBS/BSA 5% and incubated for 1 hour at 37° C., then they are incubated for 1 hour at 37° C. with anti-chitooligomer AcM at 50 μg/ml concentration and diluted at 5 μg/ml. Then, washing with PBS/Tween 0.05% was performed for 3 times and anti-IgM murine peroxidase was added diluted 1:5000 and incubated for 2 hours at 37° C. Plates were washed again and TMB was added and incubated for 30 minutes at 37° C.
(§2) Reaction was stopped with HCl 1 N and reading with spectrophotometer at 450 nm. After this trial, seriated dilutions were performed at density of cells 10^7 until 10 cells/ml to fungi and 10^7 until 10^4 cells/ml to other cellular types and tested of AcM anti-chitooligomer at 25 μg/ml concentration, followed by the same procedures abovementioned. […]
(§3) In this trial, 10^7 cell/ml of C. albicans were used to perform an absorbance curve, in which it was observed that there was a 25 μg/ml concentration reliable signal of both AcM, as above such value the curve starts to enter in plateau, as provided in FIG. 9. […]

[3] = test system: C. neoformans (H99); assay: as above; assay type: binding, Cryptococcus neoformans; conditions: 10^4 and 10^5 cells/ml
Experimental: as §1, §2, §3

B1: HC6/DD11: murine IgM monoclonal antibody against chitooligomers (chitotriose); VH SEQ ID NO: 15, VL SEQ ID NO: 16 (antibody, listed as Mus musculus, V domains shown)
VH: STGQVKLEESGGGLVQPGGSRKLSCAASGFTFSDYGMAWVRQAPGKGPEWVAFISNLAYSIYYADTVTGRFTISRENAKNTLYLEMSSLRSEDTAMYYCARDYYGSSYWYFDVWGAGTTVTAPC
VL: ATNSCISRGEVTITCSASSSVSYMHWFQQKPGTSPKLWIYSTSNLASGVPARFSGSGSGTSYSLTISRMEAEDAATYYCQQRSSYPLTFGAGTKLELKRADAAPTVSLET
- melanization in lower concentrations [1]: not significant inhibition
- ELISA signal in cell saturation curve [2]: slightly more sensitive
- ELISA signal in cell saturation curve [3]: slightly more sensitive
